Assay [1] addresses T1, human NTB-A (human, UniProt Q96DU3 22-332).
T1 construct: whole, on cells; also called SLAMF6; hNTB-A
T1 sequence (looked up): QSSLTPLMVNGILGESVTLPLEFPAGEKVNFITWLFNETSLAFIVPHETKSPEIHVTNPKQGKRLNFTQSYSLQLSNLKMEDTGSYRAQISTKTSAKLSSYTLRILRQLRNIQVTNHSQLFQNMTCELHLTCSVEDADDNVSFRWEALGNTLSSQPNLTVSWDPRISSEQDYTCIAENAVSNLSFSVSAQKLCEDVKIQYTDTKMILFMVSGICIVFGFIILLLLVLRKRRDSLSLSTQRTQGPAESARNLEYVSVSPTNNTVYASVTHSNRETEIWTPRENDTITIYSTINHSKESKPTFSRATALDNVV
The assay is described as follows: flow cytometry competition on NTB-A positive Ramos cells; competitor: AF647-labelled 11A1 at 0.0188 ug/mL; half of the partial effect, not 50% of maximum binding. In general terms: Flow cytometry measures light scatter and fluorescence of single cells or particles in a stream.

Assay [2] has as its target T1, human NTB-A. Put plainly: flow cytometry, saturation binding of Alexa Fluor 647-labelled antibody on Ramos cells. How it is done:
Antigen positive Ramos cells were plated at 1×10⁵ cells per well in a 96 well V-bottom plate (Thermo Scientific, Rochester, N.Y.). Three-fold serial dilutions of 2× concentrated antibodies were prepared in FACs buffer (PBS+2% fetal bovine serum+0.02% azide) and were added to the cells in duplicate. The antibody solutions were incubated with cells for 1 hour on ice, protected from light. The cells were washed twice with FACs buffer and analyzed on the LSRII flow cytometer (BD BioSciences, San Jose, Calif.). KD values were determined with GraphPad Prism software (La Jolla, Calif.).

The target of assay [3] is T1, human NTB-A. The assay is described as follows: flow cytometry competition on NTB-A positive Ramos cells; competitor: AF647-labelled 11A1 at 0.0188 ug/mL. The text has this: To evaluate whether an antibody competes for specific binding to human NTB-A with a mAb comprising the VH and VL domains of the 11A1 mAb (i.e., a VH domain having the amino acid sequence as shown in residues 20-135 of SEQ ID NO:1 and a VL domain having the amino acid sequence as shown in residues 21-140 of SEQ ID NO:2), a competitive binding assay as follows is used.
This assay utilizes a “reference antibody” comprising the 11A1 murine IgG1 antibody (i.e., the 11A1 VH and VL domains in the bivalent structure of a native antibody). NTB-A positive Ramos cells are plated at 2×10⁵ cells per well in a 96 well V-bottom plate (Thermo Scientific, Rochester, N.Y.). […] The antibody solutions are incubated with cells for 1 hour on ice, protected from light. The cells are washed twice with FACs buffer and analyzed on the LSRII flow cytometer (BD BioSciences, San Jose, Calif.). Data are presented as percent of maximum binding. The sample antibody “competes with” the labeled reference antibody for specific binding to NTB-A if the sample antibody reduces the reference antibody's binding to NTB-A to levels less than 45% of maximum binding (i.e., 0 to 45%) at a concentration of 10 μg/ml of unlabeled sample antibody. […]

In turn, “NT-7 antibody (clone: NT-7 (Biolegend #317208))” came in with an IC50 (read off the curve) in assay [1] of 0.1 µg/mL.

B1: 26B7 murine IgG1 antibody (antibody, V domains shown)
VH: QVQLLQPGAEVVKPGTSVKLSCKASGYNFTIYWINWVKLRPGQGLEWIGDIHPGRGNTNLNEKFKTKATLTVDTSSSTAYMQLNSLAFEDSALYYCAREDEDWYFDVWGAGTTVTVSS
VL: DIQMNQSPSSLSASLGDTITITCRASQGISIWFNWYQQKSGNIPKLLIYKTSNLHTGVPPRFSGSGSGTDFTLTISSLQPEDIATYYCLQSQSYPYTFGGGTKLEIKR
notes: Murine IgG1; also called mAb 26B7
The Kd is the equilibrium constant for the complex coming apart. In assay [2], B1 showed a dissociation constant (Kd) of 160 pM. In assay [3], the “IC50 (read off the curve)” value was around 0.08 µg/mL.

The values above are taken from patent US20150376276A1 (Seagen, published 2015).
